Assay results published in doi:10.64898/2025.12.06.692711, “Archaeal histone HTkC hypercompacts DNA”.

Target: T1, HTkC (Thermococcus kodakarensis, UniProt Q5JDW7)
T1 sequence: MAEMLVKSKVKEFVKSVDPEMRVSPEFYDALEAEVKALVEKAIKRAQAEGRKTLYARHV
Experiment: X-ray crystallography; 1.95 A; EMSA: 50 mM Tris-HCl pH 7.0, 75 mM KCl, 14.5% glycerol, room temperature 30 min, gel in 0.5x TBE at 4 C; TPM: 50 mM Tris pH 7.0, 75 mM KCl
Conditions: protein: recombinant; chain copies: 4; blunt

B1: 30 bp-GC50 (dsDNA)
DNA 1: TTAAAGCCCGTTAAAGCCCGTTAAAGCCCG
DNA 2: CGGGCTTTAACGGGCTTTAACGGGCTTTAA
  binding result: binds
